From patent US20110135639A1 (Human Genome Sciences, published 2011)

Experiments:
[1] = molecular target: T1, membrane-bound form of Neutrokine-alpha (human, UniProt Q9Y275 1-285); experiment: binding to THP-1 cells
T1 construct: also called Neutrokine-alpha on the surface of THP-1 cells; cell surface Neutrokine-alpha

[2] = molecular target: T2, peptide comprising amino acid residues Val-227 to Asn-242 of SEQ ID NO:2 (human); experiment: epitope mapping with peptide
T2 peptide: VTLFRCIQNMPETLPN

[3] = molecular target: T3, soluble form of Neutrokine-alpha (amino acids 134 to 285 of SEQ ID NO:2) (human, UniProt Q9Y275 134-285); experiment: capture of Neutrokine-alpha from solution
T3 construct: also called rNeutrokine-alpha; BLyS

T1 sequence (Q9Y275 whole entry): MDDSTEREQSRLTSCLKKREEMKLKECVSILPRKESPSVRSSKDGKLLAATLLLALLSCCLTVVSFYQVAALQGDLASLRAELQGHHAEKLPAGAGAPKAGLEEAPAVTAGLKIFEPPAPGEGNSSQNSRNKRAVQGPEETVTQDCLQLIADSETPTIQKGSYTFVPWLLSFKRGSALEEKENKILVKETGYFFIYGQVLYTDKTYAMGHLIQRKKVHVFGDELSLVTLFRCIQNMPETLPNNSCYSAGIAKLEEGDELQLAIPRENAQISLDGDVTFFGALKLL

binding result [1]: binds
binding result [2]: binds
binding result [3]: binds
B1: murine monoclonal antibody 15C10 (antibody, V domains shown)
VH: QVQLQQSGAELARPGASVKMSCRASGYTFTTYTMHWVKQRPGQGLEWIGYIIPRNTYTTFNQKFKNKATLTADKSSNTAYMQLSSLTSEDSAVYYCARHYGGGYWFFDVWGAGTTVTVSS
VL: ELVMTQTPASLAVSLGQRATISCRGSESVDSYGNSFMHWYQQKPGQPPKLLIYRASNLESGIPARFSGSGSRTDFTLTIYPVEADDVATYYCQQSNDDPMYTFGGGTKLEIKR
notes: A chimeric form with human IgG1 and kappa constant regions also exists (PTA-3794); also called hybridoma ATCC PTA-1158
